The values that follow come from paper PMC7679444.

The target in the test is GST-HA-ATG16L1(231–607), Q676U5. Description: peptide microarray. Conditions: chain shown with the change; 800, 600, 400 nM; n = 9; read off a plot.
Sequence of GST-HA-ATG16L1(231–607), Q676U5 (Q676U5 231-607): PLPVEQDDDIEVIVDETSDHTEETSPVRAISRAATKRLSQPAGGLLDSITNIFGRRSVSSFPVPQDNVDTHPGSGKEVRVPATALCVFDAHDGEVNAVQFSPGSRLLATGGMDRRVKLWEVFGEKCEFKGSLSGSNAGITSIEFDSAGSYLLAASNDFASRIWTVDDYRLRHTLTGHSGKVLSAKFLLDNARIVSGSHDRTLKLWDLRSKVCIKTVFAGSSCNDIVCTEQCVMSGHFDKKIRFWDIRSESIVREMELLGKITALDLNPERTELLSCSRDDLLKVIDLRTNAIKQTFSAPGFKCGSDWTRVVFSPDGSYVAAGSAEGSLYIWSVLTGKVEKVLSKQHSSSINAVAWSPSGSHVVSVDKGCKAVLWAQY

Regarding YVPSELYGDL [TMEM59 peptide (residues 268–280), wild type, Q9BXS4 K273del; S275del; I276del], the percent of parent was determined as 110 % WT. In the case of YEKLSIYGDL [TMEM59 peptide (residues 268–280), wild type, Q9BXS4 V269del; P270del; S271del] it was 160 % WT.
